Test results from patent US20140295520A1.

How the values were obtained:
[1] = biological target: EutSMNLK (recombinant shell of EutS, EutM, EutN, EutL and EutK) (Salmonella enterica LT2) (UniProt Q9ZFV7); assay: cell-based or functional assay
[2] = biological target: EutS (recombinant EutS shell/compartment) (Salmonella enterica LT2) (UniProt Q9ZFV7); assay: cell-based or functional assay
[3] = biological target: EutS-G39V mutant (Salmonella enterica LT2); assay: cell-based or functional assay
[4] = biological target: EutMNLK (EutM, EutN, EutL and EutK co-expressed without EutS) (Salmonella enterica LT2); assay: cell-based or functional assay
[5] = tested on: EutS (recombinant EutS shell/compartment)

Substance	% cells with green flourescent foci (E. coli C2566) [1] [%]	% cells with green flourescent foci (E. coli JM109) [1] [%]	% cells with green flourescent foci (E. coli C2566) [2] [%]	% cells with green flourescent foci (E. coli JM109) [2] [%]	% cells with green flourescent foci (E. coli C2566) [3] [%]	% cells with green flourescent foci (E. coli JM109) [3] [%]	% cells with green flourescent foci (E. coli C2566) [4] [%]	% cells with green flourescent foci (E. coli JM109) [4] [%]	fluorescent localization in E. coli [5]
EutC^1-19-EGFP	84	79	87	84					
Enhanced Green Fluorescent Protein (EGFP)	0.2	1.8	0.5	0.6	0.3	2.9	0.1	0.8	
EutC^1-19-BTL-2 fused to EGFP (modular cassette)									Upon co-expression of EutS, the majority of the tagged lipase localizes to a compartment formed somewhat off-center in E. coli
